From the nanobody polyreactivity screen of Harvey et al. (2022) come the findings set out here.

This series in a line: yeast display, Sf9 membrane polyspecificity reagent, FACS + sequencing; frameworks hold sequencing errors. Summed up: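 Polyreactivity labels are assigned by the sorting gate from which each nanobody was recovered. The gates were low and high (top ~1%), set on anti-HA fluorescence for expression and streptavidin fluorescence for reagent binding. Before sorting, galactose-induced (36–48 hours) yeast display cells were stained for 1 hour at 4 °C with 10% biotinylated, detergent-solubilized Sf9 membrane reagent.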
Turning to “QVQLVDSGGGLVQAGGSLRLRCAASGRNFGTNAMGWYRPAPGKERELVATITRGGGNTYYADSVKGRFTISRDNAKNTVYLQMNSLKPEDTAVYYCAAGVIFYVGTRVYAYDYWGQGTQLTVSS”, the “polyreactivity (PSR sort gate)” value was “low polyreactivity”.
The entry for “QLQLVESGGGLVQAGGSLRISCAASGFTFRYYAMGWYRQAPGKERKFVAGIDFGAITNYADSVKGRFTISRDNAKNTEYLQMSSLKPEDTAVYYCAAGVYDWYAYDYWGQGTQVTVSS” is “high polyreactivity”.
In the case of “QVQLVESGGGLVQAGGSLRLSCAASGSIFYVYAMGWYRQAPGKERELVAAITSSGDTTYYADSVKGRFTISRDNAKNTVYLQMNSLKPEDTAVYYCAKVFGPTDYLTGTFKGDYWGQGTQVTVSS” it was “low polyreactivity”; in that of “QVQLVESGGGLVQAGGSLRLSCAASGRIFRRYTMGWYRQAPGKERELVAAITWNGGRTYYADSVKGRFTISRDNAKNTVYLQMNSLKPEDTAVYYCAARRQGGYGYDYWGQGTQVTVSS”, “high polyreactivity”; in that of “QVQLVESGGGLVQAGGSLRLSCAASGRIFAPYAMGWYRQAPGKEREFVATITHSGGRTYYADSVKGRFTISRDNAKNNVYLQMNSLKPEHTAVYYCAAGYGYNRLYYGVDYWGQGTQVTVSS”, “low polyreactivity”.
With “QVQLVESVGGLVQAGGSLRLSCAASGRIFGSNAMGWYRPAPGKERELVAAISLSGTSTYYADSVKGRFTISRDNAKNTVYLQMNSLKPEDTAVYYCAAGLPGGTYFWGQGTQVTVSS”, the “polyreactivity (PSR sort gate)” value is reported as “high polyreactivity”.
In the case of “QVQLVESGGGLVQAGGSLRLSCAASGSIFKSNAMGWYRQAPGKERELVAAISNGGITNYADSVKGRFTISRDNAKNSVYLQMNSLKPEDTAVYYCATSDVREIWVDYWGQGTQVTVSS”, the “polyreactivity (PSR sort gate)” value is “low polyreactivity”.
Regarding “QVQHVESGGGLVQAAGSLRLSCAASGRIFYRNAMGWSRQAPGKERELVAAISKSGGSTYYSDSVKGRFTISRDNAKNTVYLQMNSLKPEDTAVYYCAAGTRLSDGYYWGQGTQVTVSS”, the “polyreactivity (PSR sort gate)” value was “high polyreactivity”.
As for “QVQLVESGGGLVQAGGSLRLSCAASGSIFGDYAMGWYRQAPGKERELVADISSGGSTTYADSVKGRFTISRDNAKNTVYLQMNSLKPEDTAVYYCNAERGVPYGYWGQGTQVTVSS”, the “polyreactivity (PSR sort gate)” value is “low polyreactivity”.
In the case of “QVQLVESGGGLVQAGGSLRLSCAASGGTLEVYAMGWYRQAPGKEREFVAAISWSGGRTYYADSVKGRFTISRDNAKNTVYLQMNSLKPEDTAVYYCATRDRAGYYYWGQGTQVTVSS”, the “polyreactivity (PSR sort gate)” value is “high polyreactivity”.
Turning to “QVQLVESGGGLVQAGGSLRLSCAASGRIFGRNAMGWYRQAPGKERELVAAIRLSGGSTYYADSVKGRFTISRDNAKNTVYLQMNSLKPEDTAVYYCATRPVANGRKYDYWGQGTQVTVSS”, the “polyreactivity (PSR sort gate)” value is reported as “high polyreactivity”.
Turning to “QVQLVESGGGLVQAGGSLRLSCAASGSIFVGYTMGWYRQAPGKETELVADITYNGGTTYYADSVKGRFTISRDNAKNTVYLQMNSLKPEETAVYYCAADYYYACFPVYYWGQGTQVTVSS”, the “polyreactivity (PSR sort gate)” value is “high polyreactivity”.
Take “QVQLEESGGGLVQAGGSLRLSCAASGRIGAYAMGWYRQAPGKERELVAGITSNGASTYYADSVKGRFTISRDNAKNTVYLQMNSLKPEDTAVYYCAARYRFQRGGYYYWGQGTQVTVSS”: the “polyreactivity (PSR sort gate)” value is recorded as “high polyreactivity”.
Take “QVQLVESGGGIVQAGGSLRLSCAASGLIIQNNAMVWNRQAPGKERELVAAITSDGSTYADSVKGRFTISRDNAKNTVYLQMNSLKPEDTAVYYCNADGITSLPVPALDYWGQGTQVTVSS”: the “polyreactivity (PSR sort gate)” value is on record as “low polyreactivity”.
Turning to “QVQLVESGGGLDQAAGSLPLSCAASGLIFPVYAMGWYRQAPGKAREFVASIWRGGTTYYADSVKGRFTISRDNAKNTVYLQMNSLNPEDTAVYYCAARYYPSGLVFPFTKYDYWGQGTQVTVSS”, the “polyreactivity (PSR sort gate)” value was “high polyreactivity”.
“QVQLVESGGGLVQAGGSLRLSCAASGRTFLSYMGWYRQAPGKERELVAISRSGTSTYYADSVKGRFTISRDNAKNTVYLQMNSLKPEDTAVYYCAATRRYPQYRGYDYWGQGTQVTVSS”: the “polyreactivity (PSR sort gate)” value was “high polyreactivity”.
As for “QVQLVESGGGLVQAGGRLRISCAASGTIFYSYEMVWYRKAPAKERELVAAITQSGSSTYYADSVKGRFTISRDNAKNTVYLQMNSLKPEDTAVYYCAAVSRRHPTMSDYWGQGTQVTVSS”, the “polyreactivity (PSR sort gate)” value is reported as “high polyreactivity”.
“QVQLVESGGGLVQAGGSLRLSCAASGSTFSNNAMGWYRQAPGKERELVAAITRRGTSTYYADSVKGRFTISRDNAKNTVYLQMISLKPEDTAVYYCAAVYKLRHKRPSYGSWGQGTQVTVSS”: the “polyreactivity (PSR sort gate)” value is reported as “high polyreactivity”.
With “QVQLVESGGGLVQSGGSLRLSCAASGSIFGSNAMGWYRQAPGKERELVAAISRSGTSTYYADSVKGRFTISRDNAKNTVDLQMTSLKPEDSAVYYSNTAQRYRVYRYDYWGQGTQVTVSS”, the “polyreactivity (PSR sort gate)” value is listed as “high polyreactivity”.
Consider “QVQLVESGGGLVQAGGSLRLSCAASGRILGLYAMGWYRQAPGKESELVAAISRGGGSTYYADSLKGRFTISRDNAKNTVYLQMNSLKPEDTAVYYCATGLGYFSRLDYWGQGTQVTVSS”, for which the “polyreactivity (PSR sort gate)” value is on record as “low polyreactivity”.
“HVQLVESGGGLVQAGGSLRLSCAASGFTFPLYALGWYRPAPGKEREVVAAIRSSGGSTYYADSVKGRFTISRDKAKNTVNLQMNSLKPEDTAVSYCAKVRSTRRLDTYYYWGQGTQVTVSS”: the “polyreactivity (PSR sort gate)” value is reported as “high polyreactivity”.
Take “QVQLVESGGGLVQAGGSLRLSCAASGSTRRDYVMGWYRQAPGKERELVAAITSRVDDTYYADSVKGRFTISRDNAKNTVYLQLNSLKPEDTAVYYCAADYSVTLRIGGYYWFYAFDYWGQGTQLTVSS”: the “polyreactivity (PSR sort gate)” value is given as “low polyreactivity”.
The entry for “QVQLVESGRGLVQAGGSLRLSCAASGSIFRRYAMGWYRQAPGKERELVAGITRSGGNTYYADSVKGRFTISRDNAKNTVYLQMNSLKPEDTAVYYCAARHRYNIRTYDAWGQGTQVTVSS” is “high polyreactivity”.
The entry for “QVQLVESGGGLVQAGGSLRLSCAASGFICDYNAMGWYRQAPGKERELVAAISGGGGSTYYADSVKGRFTISRDNAKKTVYLQMNSLKPEDTAVYYCAKRYRGGYWGQGTQVTVSS” is “high polyreactivity”; for “QVKLVESGGGLVQAGGSLRLSCAASGIIFSGNAMGWYRQAPGKERELVAAITRGGRTYYADSVKGRFTISRDNAKNTVYLQMNSLKPEDTAVYYCAADDPHRAREYDYWGQGTQVTVSS” it is “high polyreactivity”; for “QDQLVESGGGLVQAGGSLLLSCAASGIIITGNAMVWYRQAPGKERELVAGITGSGGNTYYADCVKGRYTISRDNAKNTFYLQMNSLKPEDTGVYYCAARRHIFLLIIWSGRVDYWGQGTQVTVSS” it is “low polyreactivity”.
Consider “QVQLVESGGGLVQAGGSLRLSCAASGSIFWRYAMGWYRQAPGKERELVAAIDVSGATTYYADSVKGRFTISRDNAKNTVYLQMNSLKPEDTAVYYCATYATNSVAAYDYWGQGTQVTVSS”, for which the “polyreactivity (PSR sort gate)” value is “low polyreactivity”.
Regarding “QVQLVESGGGLVQAGGSLRLSCAASGRTFAAYAMGWYRQAPGKERELVAAIRRGGTTNYADSVKGRFTISRDNAKNTVYLQMNSLKPEDTAVYYCAALAPYSRSWVTYDYWGQGSQVTVSS”, the “polyreactivity (PSR sort gate)” value is “low polyreactivity”.
Turning to “QVQLQESGGGPVLAGGSLRLSCEASGTIFVRLDMGWYRQAPGKEREFVATIGSGSSTYYADSVKGSFTISRDNVKNTVYLQMNSLKPEETAVYYCAVSAAEQSRHYYWDQGTQVTVSS”, the “polyreactivity (PSR sort gate)” value is reported as “low polyreactivity”.
The entry for “QVQLVESGGGLVQAGGSLRLSCAASGITFSHNAMGWYRQAPGKERELVAAITRSGGSTYYADSVKGRFTISRDNAKNTVYLQMNSLKPEDTAVYYCATEDYYRQYGYWSLSRMDHWGQGTQVTVSS” is “low polyreactivity”.
As to “QVQLVESGGGLVQAGGSLRLSCAASGFTFGYYAMGWYRQAPGKERELVAAISSSGGSTYYADSVKGRFTLSRDNAKNTVYLQMNSLKPEDTAVYYCAVVVFSRVYRYFTSDYWGQGTQVTVSS”, the “polyreactivity (PSR sort gate)” value is listed as “high polyreactivity”.
For the sequence “QVQLQESGGGLLQAGGSLRLSCAASGTISTDSYMGWYRQAPGKERKFVATIGYGGITYYADSVKGRSTISRDSAKNTVYLQMNSLKPEDTEVYYCAVNSYYPDHYWYWGRGTQVTVSS”, the “polyreactivity (PSR sort gate)” value was “high polyreactivity”.
In the case of “QVQLEESGGGLVQAGGSLRLSCAASGYTFYRYTMGWYRQAPGKERELVAAISSRGGSKYYADSVKGRFTISRDNAKNTVYLQMNSLKPEDTAVYFCARKYPRKTLSKGFDYWGQGTQVTVSS”, the “polyreactivity (PSR sort gate)” value was “high polyreactivity”.
With “QVQLVESGGGLVQAGGSLRLSCAASGSTLRYYAMGWYRQAPGKEREWVAAISTGGSTYYADSVKGRFTISRDNAKKTVYLQMHSLKPEDTAVYYCAAEPWANTPGEAGSPFDYWGQGTQVTVSS”, the “polyreactivity (PSR sort gate)” value is recorded as “low polyreactivity”.
In the case of “QVQLVESGGGLVQAGGSLRLSCAASGSIFNPYTMGWYRQAPGKERELVAAISASGGSTYYADSVKGRFTISRDNAKYTVYLQMNCLKPEDTAVYYCNVYRITRHSYNFGFDYWGQGTQVTVSS” it was “low polyreactivity”.
Take “QVQLVESGGGLVQAGGSLRLSCAASGLIFGPNAMGWYRQSPGKERELVAAITKSGDSTYYADSVKGRFTISRDNAKNTVYLQMNSLKPEDTAVYYCAADTTTGLYDYWGQGTQVTVSS”: the “polyreactivity (PSR sort gate)” value is “low polyreactivity”.
In the case of “QVQLVESGGGLVQAGGSLRLSCAASGSIFEEYALGSSRQAPGKERELVAAISRSGGSTYYADSVKGRFTISRDNAKNSVYLQMNSLKPEDTAVYYCAAEWVYGYRFGYWGQGTQVTVSS” it was “low polyreactivity”.
With “QVHLVESGGGLVQAGGSLRLSCAASGFTFIRYAMGWYRQAPGKEREFVAAISWRVGITYYADSVKGRFTISRDNAKNTVYLQMNSLKPEDTAVYYCARDYRNPPFAYEYWGQGTQVTVSS”, the “polyreactivity (PSR sort gate)” value is given as “low polyreactivity”.
As to “QDQLVESGGGLVQAGGSLRLSCAASGSIFVHYVMGWYRQAPGKERELVAAISSRGGGTFYADSVKGRFTISRDNAKNTVYLQMNSLKPEDTAVSYCARVPYFGSGAIRDYWGQGTQVTVSS”, the “polyreactivity (PSR sort gate)” value is “high polyreactivity”.
For the sequence “QVQLVESGGGLVQAGGSLRLSCAASGYILDVYAMGWYRQAHGKEWELVAVITWRTDSTYYADSVKGRFTISRDNAKNTVYLQMNSLKPEDTAVYYCAKVLRLSKYRYYYWGQGTQVTVSS”, the “polyreactivity (PSR sort gate)” value is given as “high polyreactivity”.
Take “QVQLVESGGGLVQAGGSLRLSCAASGSTFWTNAMGWNRQAPGKERELVATITYSTGTYADSVKGRFTISRDNAKNTVYLQMNSLKPEDTAVYYCAATGVPGWVGFDYWGQGTQVSVSS”: the “polyreactivity (PSR sort gate)” value is “low polyreactivity”.
